The text below walks through data of publication PMC6779467, “Cytoplasmic protein misfolding titrates Hsp70 to activate nuclear Hsf1” (eLife, 2019).

The chains are these.
B2: Hsf1-StrepTag II (natural protein, S. cerevisiae, UniProt P10961 1-833, looked up)
chain: MNNAANTGTTNESNVSDAPRIEPLPSLNDDDIEKILQPNDIFTTDRTDASTTSSTAIEDIINPSLDPQSAASPVPSSSFFHDSRKPSTSTHLVRRGTPLGIYQTNLYGHNSRENTNPNSTLLSSKLLAHPPVPYGQNPDLLQHAVYRAQPSSGTTNAQPRQTTRRYQSHKSRPAFVNKLWSMLNDDSNTKLIQWAEDGKSFIVTNREEFVHQILPKYFKHSNFASFVRQLNMYGWHKVQDVKSGSIQSSSDDKWQFENENFIRGREDLLEKIIRQKGSSNNHNSPSGNGNPANGSNIPLDNAAGSNNSNNNISSSNSFFNNGHLLQGKTLRLMNEANLGDKNDVTAILGELEQIKYNQIAISKDLLRINKDNELLWQENMMARERHRTQQQALEKMFRFLTSIVPHLDPKMIMDGLGDPKVNNEKLNSANNIGLNRDNTGTIDELKSNDSFINDDRNSFTNATTNARNNMSPNNDDNSIDTASTNTTNRKKNIDENIKNNNDIINDIIFNTNLANNLSNYNSNNNAGSPIRPYKQRYLLKNRANSSTSSENPSLTPFDIESNNDRKISEIPFDDEEEEETDFRPFTSRDPNNQTSENTFDPNRFTMLSDDDLKKDSHTNDNKHNESDLFWDNVHRNIDEQDARLQNLENMVHILSPGYPNKSFNNKTSSTNTNSNMESAVNVNSPGFNLQDYLTGESNSPNSVHSVPSNGSGSTPLPMPNDNDTEHASTSVNQGENGSGLTPFLTVDDHTLNDNNTSEGSTRVSPDIKFSATENTKVSDNLPSFNDHSYSTQADTAPENAKKRFVEEIPEPAIVEIQDPTEYNDHRLPKRAKK
notes: Hsf1, S. cerevisiae; HSF1 amplified with primers from the start codon to the last codon before the tag; also called Heat shock factor 1; yeast Hsf1; source: E. coli BL21-SI/pCodonPlus with pCA1026, coexpressed with 6xHis-SUMO-Ssa1 and Sis1; purified (Ni-IDA, Strep-Tactin Sepharose); not shown: Strep Tag II, C-terminal, kept

Data set [1] has as its target B2. Nature of the data set: pull-down; coexpression in E. coli; tandem affinity purification: Ni-IDA (6xHis-SUMO on Ssa1), Ulp1 cleavage, Strep-Tactin Sepharose (StrepTag II on Hsf1), elution with desthiobiotin; LWB150 (40 mM HEPES-KOH pH 7.5, 150 mM NaCl, 5 mM MgCl2, 5% glycerol); stoichiometry by densitometry of a Coomassie stained gel. The following applies: partners not purified.

Data set [2] concerns the molecule itself. Nature of the data set: SEC; 500 ul of 2 mg/ml purified complex on HiLoad 16/600 Superdex200 pg, 1 mL/min, LWB150.

B1: Ssa1 (6xHis-SUMO tag cleaved with Ulp1) (natural protein)
chain: not shown
notes: Hsp70 Ssa1, S. cerevisiae; Same construct as m2 after cleavage of the tag with Ulp1 SUMO protease; also called Hsp70; Hsp70 Ssa1; source: E. coli BL21-SI/pCodonPlus with pCA1026, coexpressed with Hsf1-StrepTag II and Sis1; purified (Ni-IDA, Ulp1 cleavage, Strep-Tactin Sepharose through Hsf1); not shown: 6xHis-SUMO, N-terminal, cleaved
Regarding B1, the “stoichiometry N” value in data set [1] was found to be 3 Hsf1 per Ssa1.

Consider B2, for which, in data set [2], the binding result is given as “binds”.

Usually stoichiometry N stands for a count of units in the complex or per binding partner.
